Source: US10369195B2, “Methods and compositions for preventing and treating damage to the heart” (MandalMed, Inc., priority 2016, dated 2019)
Entries after “also recorded” stand apart in the source; their conditions may differ.

Key:
[1] = system: rat ischemia-reperfusion model of MI; assay: Pilot dose-finding study: hydroxyproline assay of collagen in the left ventricle after ischemia-reperfusion MI; assay type: in vivo; settings: 100, 200, 400, 600 μg/day by osmotic pump from day 0 for 7 days; vs vehicle; n=2-3
Description: Animal experiments to test the therapeutic potential of Gal-3C in the preservation of post-MI cardiac function were performed using surgical induction of MI in rodents and functional evaluation of treatment as previously described (61-66). To most accurately model cardiac damage experienced by MI patients, a well-established ischemia-reperfusion procedure was used in which the left anterior descending coronary artery (LAD) of rats was occluded for 25 min followed by restoration of blood flow (67). […]
Briefly, rats were ventilated to a small animal volume-controlled ventilator (Harvard Rodent Ventilator, Model 683, South Natick, Mass.), and the heart was exposed via thoracotomy. […] All animals were monitored post-operation until they became ambulatory. […]
A pilot dose-finding study was performed to determine Gal-3C levels reducing fibrosis, with collagen levels in heart tissue extracts as surrogate endpoints. […] It was determined that an equivalent to the mouse dose for use in rats of 250-300 g/body weight based on m^2 of average body surface area of the two species as approximately 105 μg/day. […]

[2] = system: rat ischemia-reperfusion model of MI; assay: Serial echocardiography (ejection fraction, ESV, EDV) after ischemia-reperfusion MI; assay type: in vivo
Description: Animal experiments to test the therapeutic potential of Gal-3C in the preservation of post-MI cardiac function were performed using surgical induction of MI in rodents and functional evaluation of treatment as previously described (61-66). To most accurately model cardiac damage experienced by MI patients, a well-established ischemia-reperfusion procedure was used in which the left anterior descending coronary artery (LAD) of rats was occluded for 25 min followed by restoration of blood flow (67). This standard MI model is more clinically relevant than permanent LAD ligation models because the reperfusion experienced after post-MI angioplasty not only limits the size of the infarct, but paradoxically introduces free radical damage, and is well validated as a model for post-MI heart failure experimental therapies (68).
Experiments were performed according to the UCSF guidelines for rodent survival surgery and the Guide for the Care and Use of Laboratory Animals of the US National Institutes of Health. Male Sprague-Dawley rats (age 10-12 weeks) were anesthetized with isoflurane (2%), received analgesics (buprenorphine (0.1 mg/kg), subcutaneous injection) pre- and post-operation, and underwent ischemia-reperfusion MI involving temporary (25 minutes) occlusion of the left anterior descending coronary artery (LAD) to produce regional moderate myocardial ischemia.
Briefly, rats were ventilated to a small animal volume-controlled ventilator (Harvard Rodent Ventilator, Model 683, South Natick, Mass.), and the heart was exposed via thoracotomy. Occlusion proceeds with a 7-0 nonabsorbable surgical suture passed under the LAD 2-3 mm from tip of the normally positioned left auricle and tied around a 1-mm section of PE-50 tubing, tightening with an artery clamp to temporarily occlude the LAD. After occlusion for 25 minutes, reperfusion was allowed to the formerly ischemic bed. The chest was then closed with removal of excess fluid and air from the chest cavity. All animals were monitored post-operation until they became ambulatory. The mortality during MI procedure was 12%.
The highest dose, 600 μg/rat/day, and the lowest dose, 200 μg/rat/day, were chosen for continued study, representing approximately 2- and 5.5-fold higher doses based on body surface area of rats than was used in the multiple myeloma study of Gal-3C in mice (70). Groups of rats (n=10) were treated with low (200 μg/day) and high (600 μg/day doses of Gal-3C or with PBS-lactose (vehicle control) administered over 0-6 days post-MI (“early window”; primed pumps were implanted several minutes before the MI procedure on day 0). These groups were designed to be sufficiently powered to detect potentially statistically significant improvement from Gal-3C treatment.
Pre-filled and primed mini-osmotic pumps were implanted a few minutes before surgical induction of MI and Gal-3C treatment continued for 7 days (denoted as “early window”) as in the pilot study described above. The effect of treatment on cardiac function was evaluated by serial echocardiography on day 0 pre-MI, 2 and 28 days post-MI, and LV pressure measurement at 28 days. For the early window, groups consisted of sham surgery with PBS, sham with 600 μg/day Gal-3C, MI with PBS, MI with 200 μg/day Gal-3C, and MI with 600 μg/day Gal-3C.
In a subsequent experiment, the high dose Gal-3C and the PBS control were administered by Alzet pump over a delayed delivery window of from 4 days until 10 days post-MI (denoted as “delayed window”) to rats that had been subjected to the same ischemia-reperfusion procedure as described in Example 2 above. Delayed treatment might better enable fibrotic repair of the infarct while preventing wall rupture. […]

[3] = Gal-3C 600 μg/day days 4-10 vs losartan 8 mg/kg/day 56 days, 15/group
[4] = delayed window (4-10 days post-MI), 600 μg/day, 28 days post-MI, vs vehicle
[5] = delayed window Gal-3C, 8 weeks (day 56) post-MI, expanded groups 15/group (FIG. 12)
[6] = delayed window, 600 μg/day, 8 weeks (day 56) post-MI, vs vehicle, n=12/group
[7] = early window (0-6 days post-MI), 200 and 600 μg/day, 28 days post-MI, vs PBS

B1: Gal-3C: N-terminally truncated form of full length galectin-3, lacking the amino-terminal domain but retaining carbohydrate binding ability; 143 carboxy-terminal residues, SEQ ID NO: 3 (protein)
chain: GAPAGPLIVPYNLPLPGGVVPRMLITILGTVKPNANRIALDFQRGNDVAFHFNPRFNENNRRVIVCNTKLDNNWGREERQSVFPFESGKPFKIQVLVEPDHFKVAVNDAHLLQYNHRVKKLNEISKLGISGDIDITSASYTMI
reduction of collagen levels in the LV (hydroxyproline assay) [1]: 20-35%
EF, benefit relative to losartan [2, 3]: statistically significant benefit
ESV, benefit relative to losartan [2, 3]: statistically significant benefit
ESV [2, 4]: significant benefit; also recorded: statistically significant improvements
LV EDV [2, 4]: no benefit
LV ejection fraction [2, 4]: significant benefit; also recorded: statistically significant improvements
EDV [2, 5]: beneficial effect
ESV [2, 5]: beneficial effect
ejection fraction at 8 weeks compared to 4 weeks in treated animals ([2]; delayed window, 600 μg/day): trend but not a statistically significant increase
EDV [2, 6]: significant benefit
ESV [2, 6]: beneficial effect
ejection fraction [2, 6]: beneficial effect
LV end diastolic volume (EDV) [2, 7]: no benefit
end systolic volume (ESV) [2, 7]: profound benefit
left ventricular ejection fraction [2, 7]: profound benefit
cardiac function by echocardiography (ejection fraction, ESV, EDV) ([2]; early window treatment, 2 days post-MI): no benefit observed
EF, benefit relative to PBS ([2]; out to 8 weeks post-MI, Gal-3C 600 μg/day days 4-10, losartan 8 mg/kg/day in drinking water 56 days, 15/group): statistically significant benefit
